Reference: patent publication US20240252631A1, “METHODS OF USING ACTIVIN RECEPTOR TYPE II SIGNALING INHIBITORS” (Keros Therapeutics, Inc., priority 2021, published 2024)
Changes are numbered by the printed parent chain. “Also recorded” adds a separate entry of the source. One block for each molecule: values may come before it.

Tests used:
C57BI/6 mice [1] = assay: ActRIIA/B-mFc in combination with ruxolitinib (ruxolitinib-induced anemia); type: in vivo, mouse
Experimental: To examine whether treatment with ActRIIA/B-mFc can overcome ruxolitinib-induced anemia, a pharmacological assessment was conducted in mice. Ten- to twelve-week-old, female, C57BI/6 mice were dosed orally with either vehicle (n=10) or ruxolitinib at 90 mg/kg (n=20) or 120 mg/kg (n=20) twice daily. After 37 days of ruxolitinib therapy, blood was sampled via cheek bleed for hematological assessment. On Day 41, mice from each ruxolitinib dose were divided into two groups that received either TBS (vehicle) (n=10) or ActRIIA/B-mFc (7.5 mg/kg, n=10 per group), IP twice weekly for 14 days concomitant to continued ruxolitinib dosing. Hematological parameters were assessed in whole blood with the use of a Heska Element HT5 veterinary hematology analyzer.

ActRIIB = ActRIIB (Homo sapiens, UniProt Q13705); conditions: Townson et al., J. Biol. Chem. 287:27313, 2012; cited from earlier work
Sequence of ActRIIB (Q13705 19-512, species assumed): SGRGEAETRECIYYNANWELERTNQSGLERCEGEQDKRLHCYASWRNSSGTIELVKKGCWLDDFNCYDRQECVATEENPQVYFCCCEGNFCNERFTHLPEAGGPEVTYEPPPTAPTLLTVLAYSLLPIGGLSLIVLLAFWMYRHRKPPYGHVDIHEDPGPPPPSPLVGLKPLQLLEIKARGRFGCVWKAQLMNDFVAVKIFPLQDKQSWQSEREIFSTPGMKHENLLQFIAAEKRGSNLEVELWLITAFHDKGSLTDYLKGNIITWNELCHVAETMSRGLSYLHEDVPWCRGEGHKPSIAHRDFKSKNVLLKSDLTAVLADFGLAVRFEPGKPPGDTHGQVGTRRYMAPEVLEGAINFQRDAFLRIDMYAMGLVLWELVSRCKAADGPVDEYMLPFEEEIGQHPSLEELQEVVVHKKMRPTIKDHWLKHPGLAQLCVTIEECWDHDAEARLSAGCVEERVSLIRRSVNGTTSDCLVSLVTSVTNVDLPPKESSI

[2] = tested on: Bone marrow cells from 11-week-old C57BI/6 mice; assay: Ex-vivo treatment of bone marrow cells, ploidy of megakaryocyte precursors by flow cytometry; type: cell-based, mouse; conditions: six days
Experimental: Bone marrow cells from 11-week-old C57BI/6 mice were isolated and treated with Activin A ([…]), ActRIIA/B-mFc ([…]), or a combination of both for six days. Cells were harvested after six days and analyzed using flow cytometry (N=2).

[3] = Activity in vivo of ActRIIA variant substituted at X17; conditions: substitution of alanine (A) for lysine (K) at X17
C57BI/6 male mice = assay: Effect of an anti-activin A antibody on platelet numbers 24 hours post-dose; type: in vivo, mouse; conditions: intraperitoneal, anti-activin A 5 mg/kg, ActRIIA/B-mFc 10 mg/kg, vs TBS
Experimental: Ten-week-old C57BI/6 male mice were dosed with either TBS (vehicle), anti-activin A antibody (described in WO2008031061A2, 5 mg/kg), or ActRIIA/B-mFc (10 mg/kg) via intraperitoneal administration. Twenty-four hours post-dose whole blood was sampled, and platelet counts were determined using a veterinary hematology analyzer (Hematrue).

C57BI/6 mice [4] = assay: Effect of ActRIIA/B-mFc on platelets and bone marrow megakaryocyte progenitors 12 hours post-dose; type: in vivo, mouse; conditions: single dose 10 mg/kg IP
Experimental: Eleven-week-old C57BI/6 mice were dosed with either TBS (Vehicle) or ActRIIA/B-mFc (10 mg/kg) via intraperitoneal (IP) administration. Twelve hours post-dose whole blood was sampled, and platelet counts were determined using a veterinary hematology analyzer (Heska Element HT5). Mice were then euthanized, and bone marrow extracted from the femurs. Bone marrow cells were stained with antibodies against Lineage (Perc-Cy5), sca1 (BV525), cKit (Alexa750), CD41 (APC) and CD150 (Pcy7) and analyzed on flow cytometer (Cytoflex, Beckman coulter). Megakaryocyte progenitors were gated on Lin−; sca1−; ckit+; CD150+; CD41+ cells.

[5] = tested on: TPO^high model of myelofibrosis; assay: TPO^high model of myelofibrosis: platelets, red blood cell parameters, spleen weight, immune cells; type: in vivo, mouse
Experimental: The TPO^high model of myelofibrosis induces a myelofibrotic-like pathology through elevated exposure to thrombopoietin, the native endocrine inducer of megakaryocyte progenitor proliferation and development. Seven-week-old C57BI/6 albino mice (B6(Cg)-Tyr, Jackson Laboratory) were teil-vein injected with 0.75 mg/kg thrombopoietin (TPO) expressing plasmid cloned into pLEV113 plasmid (Lake Pharma). The injection was done in hydrodynamic approach in which 100 ml/kg volume is injected in a short period of time (6-10 seconds). On day 3 after TPO injection mice were divided into 2 groups receiving either vehicle (TBS) or ActRIIA/B-mFc (7.5 mg/kg), twice weekly. Mice were sacrificed on day 14 after TPO injection. Hematological parameters were measured using the Heska Element HT5 veterinary hematology analyzer.

C57BI/6 mice [6] = assay: Effect of ActRIIA/B-mFc on megakaryocyte maturation (CD41+ cells and ploidy by flow cytometry); type: in vivo, mouse; conditions: 10 mg/kg, bone marrow
Experimental: Eleven-week-old C57BI/6 mice were dosed with either TBS (Vehicle) or ActRIIA/B-mFc (10 mg/kg) via IP administration. Twelve and twenty-four hour later mice were euthanized and bone marrow extracted from the femurs. Bone marrow cells were fixed in ethanol following by a staining with Propidium lodide (PI) and anti CD41 (FITC, Efferet) antibody in parallel with RNAse treatment. Samples were analyzed by flow cytometer (Cytoflex, Beckman coulter). Ploidy of CD41+ nucleated cells (PI+ cells) was analyzed. Graphs represent % cells at each ploidy stage. For 12HR N=3 and for 24HR N=2. For CD41+ cells at 12HR time point a t-test was performed for statistical analysis. Data are presented as mean±SEM.

[7] = tested on: mouse model of immune thrombocytopenia; assay: Platelet recovery following anti-GP1bα platelet depletion; type: in vivo
Experimental: Twelve-week-old mice were treated with either anti-GP1bα (0.08 mg/kg, Efferet) or IgG control. At day 4 after treatment, the anti-GP1bα treated group was further divided to receive either vehicle or ActRIIA/B-mFc (7.5 mg/kg) treatment. Platelets were measured at indicated time points post anti-GP1bα dosing. At day 10 post-treatment, mice were euthanized and bone marrow cells were harvested. Bone marrow cells were fixed in ice-cold 100% ethanol and stained with Propidium lodide (PI) (200 μg/mL, Sigma-Aldrich) and anti-CD41 (FITC conjugated, Emfret Analytics) antibody in parallel with RNase treatment (2 mg/ml, Invitrogen). Samples were analyzed by flow cytometer (Cytoflex, Beckman coulter) and % CD41+ nucleated cells (PI+ cells) was measured.

C57BI/6 mice [8] = assay: Effect of a single dose of ActRIIA/B-mFc on platelet numbers at day 37, 51 and 85; type: in vivo, mouse; conditions: single dose 10 mg/kg subcutaneous
Experimental: Eleven-week-old C57BI/6 mice were given a single dose of either TBS (vehicle) or ActRIIA/B-mFc (10 mg/kg) via subcutaneous administration. Separate cohorts of mice from both dosing groups were sampled for whole blood at study day 37, 51 and 85, and platelet counts were determined using a veterinary hematology analyzer (Heska Element HT5).

[9] = ruxolitinib alone, 90 or 120 mg/kg orally twice daily, after 37 days
[10] = 7.5 mg/kg twice weekly from day 3, day 14 after TPO injection
[11] = 7.5 mg/kg IP twice weekly for 14 days, continued ruxolitinib

RBC volume (C57BI/6 mice [1]; [9]): reduced
hematocrit (C57BI/6 mice [1]; [9]): reduced
hemoglobin (C57BI/6 mice [1]; [9]): reduced
Molecule: N#CC[C@H](C1CCCC1)n1cc(-c2ncnc3[nH]ccc23)cn1 [ruxolitinib, reference compound]

Molecule: BMP9: bone morphogenetic protein, ligand in the TGF-β superfamily
binding affinity for ActRIIB relative to ActRIIA (ActRIIB): about 300 fold

B1: activin A: ActRII ligand of the TGF-β superfamily used to treat bone marrow cells ex vivo (protein, UniProt P08476 311-426, looked up)
Inhibin beta A chain: GLECDGKVNICCKKQFFVSFKDIGWNDWIIAPSGYHANYCEGECPSHIAGTSGSSLSFHSTVINHYRMRGHSPFANLKSCCVPTKLRPMSMLYYDDGQNIIKKDIQNMIVEECGCS
2N ploidy levels ([2]; Activin A (5 mg/kg)): increased
extent of polyploidy (higher ploidy levels) ([2]; Activin A (5 mg/kg)): reduced

B2: SEQ ID NO: 85: ActRIIA variant with substitution of alanine (A) for lysine (K) at X17 (protein)
chain: GAILGRSETQECLFYNANWELERTNQTGVERCEGEKDKRLHCYATWRNISGSIEIVAKGCWLDDFNCYDRTDCVETEENPQVYFCCCEGNMCNEKFSYFPEMEVTQPTS
activity in vivo [3]: reduced activity

B3: ActRIIA/B-mFc: SEQ ID NO: 69 fused to a mouse Fc domain by way of a linker (protein)
chain: B2 chain with A57K
modifications: left off: a dimerising Fc or GST
platelets in wild-type mice (C57BI/6 male mice): increased
bone marrow megakaryocyte progenitors (C57BI/6 mice [4]; Lin-, sca1-, ckit+, CD150+, CD41+ cells): increased
circulating platelet numbers (C57BI/6 mice [4]; vs TBS vehicle): increased
RBC metrics (red blood cells, hemoglobin, hematocrit, mean corpuscular hemoglobin concentration) [5, 10]: significant improvement
TPO-mediated increase in lymphocytes [5, 10]: reduced
TPO-mediated increase in white blood cells [5, 10]: reduced
development of anemia [5, 10]: reduce
expansion of platelets [5, 10]: significant attenuation; also recorded: attenuated
splenomegaly [5, 10]: significant reduction
splenic extra medullary hematopoiesis ([5]; inferred from splenomegaly, 7.5 mg/kg twice weekly, day 14): reduced
number of CD41+ megakaryocyte progenitors (C57BI/6 mice [6]; 12 hours after treatment): increase
number of polyploid megakaryocytes (C57BI/6 mice [6]; by 24 hours): increase
recovery of platelet numbers following platelet depletion ([7]; 7.5 mg/kg at day 4 after anti-GP1bα (0.08 mg/kg), compared to vehicle treated mice): accelerated recovery
increase in the number of CD41+ megakaryocyte progenitors in the bone marrow compared to the vehicle-treated group ([7]; 7.5 mg/kg, day 10 after platelet depletion): 25%
4N ploidy level ([7]; 7.5 mg/kg, day 10 after platelet depletion, vs vehicle): higher
ruxolitinib-associated reduction in RBC volume (C57BI/6 mice [1]; [11]): abrogated
ruxolitinib-associated reduction in hematocrit (C57BI/6 mice [1]; [11]): abrogated
ruxolitinib-associated reduction in hemoglobin (C57BI/6 mice [1]; [11]): abrogated
body weight in mice treated with ruxolitinib (C57BI/6 mice [1]; ActRIIA/B-mFc 7.5 mg/kg IP twice weekly for 14 days with ruxolitinib 90 or 120 mg/kg twice daily): increased
duration of increased circulating platelets after a single dose (C57BI/6 mice [8]): at least 85 days
circulating platelets (C57BI/6 mice [8]; day 37, 51 and 85): increased
activin-mediated changes in megakaryocyte precursors (ploidy) ([2]; ActRIIA/B-mFc (10 mg/kg) with Activin A (5 mg/kg)): reversed
